According to article PMC3021515:

Columns and labels:
DmI1529K (Drosophila) [1] = target: DmI1529K (Drosophila) (UniProt P35500)
rNav1.3 (rat) [2] = target: rNav1.3 (rat) (UniProt P08104)
rNav1.2 (rat) [3] = target: rNav1.2 (rat) (UniProt P04775)
rNav1.3 (rat) [4] = target: rNav1.3 (rat) (UniProt P08104); remark: listed apart in the source
DmE1523N (Drosophila) [5] = target: DmE1523N (Drosophila) (UniProt P35500)
DmL899C (Drosophila) [6] = target: DmL899C (Drosophila) (UniProt P35500)
DmD838C (Drosophila) [7] = target: DmD838C (Drosophila) (UniProt P35500)
mNav1.6 (mouse) [8] = target: mNav1.6 (mouse) (UniProt Q9WTU3)
DmG904N (Drosophila) [9] = target: DmG904N (Drosophila) (UniProt P35500)
DmI1529K (Drosophila) [10] = target: DmI1529K (Drosophila) (UniProt P35500); remark: listed apart in the source
DmD1525E (Drosophila) [11] = target: DmD1525E (Drosophila) (UniProt P35500)
DmE896C (Drosophila) [12] = target: DmE896C (Drosophila) (UniProt P35500)
DmNav1 (Drosophila) [13] = target: DmNav1 (Drosophila) (UniProt P35500)
rNav1.2 (rat) [14] = target: rNav1.2 (rat) (UniProt P04775); remark: listed apart in the source
rNav1.3 (rat) [15] = target: rNav1.3 (rat) (UniProt P08104); remark: listed apart in the source
DmE1523N (Drosophila) [16] = target: DmE1523N (Drosophila) (UniProt P35500); remark: listed apart in the source
[17] = target: L(1.2)DmNav1 (Drosophila) (UniProt P35500)
DmL899C (Drosophila) [18] = target: DmL899C (Drosophila) (UniProt P35500); remark: listed apart in the source
L(Dm)Nav1.2 (rat) = L(Dm)Nav1.2 (rat) (UniProt P04775)
DmT1532D (Drosophila) = DmT1532D (Drosophila) (UniProt P35500)
DmD838C (Drosophila) [19] = target: DmD838C (Drosophila) (UniProt P35500); remark: listed apart in the source
DmM5 (Drosophila) = DmM5 (Drosophila) (UniProt P35500)
mNav1.6 (mouse) [20] = target: mNav1.6 (mouse) (UniProt Q9WTU3); remark: listed apart in the source
DmG904N (Drosophila) [21] = target: DmG904N (Drosophila) (UniProt P35500); remark: listed apart in the source
DmI1529K (Drosophila) [22] = target: DmI1529K (Drosophila) (UniProt P35500); remark: listed apart in the source
DmR1530Y (Drosophila) = DmR1530Y (Drosophila) (UniProt P35500)
DmI1534L (Drosophila) = DmI1534L (Drosophila) (UniProt P35500)
DmK1526L (Drosophila) = DmK1526L (Drosophila) (UniProt P35500)
DmD1525E (Drosophila) [23] = target: DmD1525E (Drosophila) (UniProt P35500); remark: listed apart in the source
DmE896C (Drosophila) [24] = target: DmE896C (Drosophila) (UniProt P35500); remark: listed apart in the source
[25] = target: DmI1529K/R1530Y (Drosophila) (UniProt P35500)
DmNav1 (Drosophila) [26] = target: DmNav1 (Drosophila) (UniProt P35500); remark: listed apart in the source

BmK IT2 (natural protein) was tested, and the EC50 of BmK IT2 from the currents it induces at −40 mV (activation threshold), two-electrode voltage clamp, Xenopus oocytes (unit as printed in the text; the table gives µM) (DmI1529K (Drosophila) [1]) was 0.0156 µM, the shift of the half-maximal activation voltage (ΔV1/2) by 50 µM BmK IT2, two-electrode voltage clamp, Xenopus oocytes (data not shown) (rNav1.3 (rat) [2]) was -4.84 mV and the EC50 of BmK IT2 from the currents it induces at −40 mV (activation threshold), two-electrode voltage clamp, Xenopus oocytes (rNav1.2 (rat) [3]) was > 50 µM. For the same substance, the EC50 of BmK IT2 from the currents it induces at −40 mV (activation threshold), two-electrode voltage clamp, Xenopus oocytes (rNav1.3 (rat) [4]) was > 20 µM, the EC50 of BmK IT2 from the currents it induces at −40 mV (activation threshold), two-electrode voltage clamp, Xenopus oocytes (DmE1523N (Drosophila) [5]) was 2.4 µM and the EC50 of BmK IT2 from the currents it induces at −40 mV (activation threshold), two-electrode voltage clamp, Xenopus oocytes (DmL899C (Drosophila) [6]) was > 35 µM. The EC50 of BmK IT2 from the currents it induces at −40 mV (activation threshold), two-electrode voltage clamp, Xenopus oocytes (DmD838C (Drosophila) [7]) was 3.6 µM, the EC50 of BmK IT2 from the currents it induces at −40 mV (activation threshold), two-electrode voltage clamp, Xenopus oocytes (mNav1.6 (mouse) [8]) was > 50 µM and the EC50 of BmK IT2 from the currents it induces at −40 mV (activation threshold), two-electrode voltage clamp, Xenopus oocytes (DmG904N (Drosophila) [9]) was > 50 µM. The EC50 of BmK IT2 from the currents it induces at −40 mV (activation threshold), two-electrode voltage clamp, Xenopus oocytes (DmI1529K (Drosophila) [10]) was 15.6 µM, the EC50 of BmK IT2 from the currents it induces at −40 mV (activation threshold), two-electrode voltage clamp, Xenopus oocytes (DmD1525E (Drosophila) [11]) was 3.3 µM and the EC50 of BmK IT2 from the currents it induces at −40 mV (activation threshold), two-electrode voltage clamp, Xenopus oocytes (DmE896C (Drosophila) [12]) was > 35 µM. It also gave an EC50 of BmK IT2 from the currents it induces at −40 mV (activation threshold), two-electrode voltage clamp, Xenopus oocytes (DmNav1 (Drosophila) [13]) of 2.9 µM, a shift of the half-maximal activation voltage (ΔV1/2) by 2 µM BmK IT2 with prepulse, two-electrode voltage clamp, Xenopus oocytes (rNav1.2 (rat) [14]) of 1.14 mV and a shift of the half-maximal activation voltage (ΔV1/2) by 2 µM BmK IT2 with prepulse, two-electrode voltage clamp, Xenopus oocytes (rNav1.3 (rat) [15]) of 0.9 mV. For the same substance, the shift of the half-maximal activation voltage (ΔV1/2) by 2 µM BmK IT2 with prepulse, two-electrode voltage clamp, Xenopus oocytes (DmE1523N (Drosophila) [16]) was -12.1 mV, the shift of the half-maximal activation voltage (ΔV1/2) by 2 µM BmK IT2 with prepulse, two-electrode voltage clamp, Xenopus oocytes [17] was -12.5 mV and the shift of the half-maximal activation voltage (ΔV1/2) by 2 µM BmK IT2 with prepulse, two-electrode voltage clamp, Xenopus oocytes (DmL899C (Drosophila) [18]) was -1.39 mV. For the same substance, the shift of the half-maximal activation voltage (ΔV1/2) by 2 µM BmK IT2 with prepulse, two-electrode voltage clamp, Xenopus oocytes (L(Dm)Nav1.2 (rat)) was -5.05 mV, the shift of the half-maximal activation voltage (ΔV1/2) by 2 µM BmK IT2 with prepulse, two-electrode voltage clamp, Xenopus oocytes (DmT1532D (Drosophila)) was -9.44 mV and the shift of the half-maximal activation voltage (ΔV1/2) by 2 µM BmK IT2 with prepulse, two-electrode voltage clamp, Xenopus oocytes (DmD838C (Drosophila) [19]) was -10.4 mV. It also gave a shift of the half-maximal activation voltage (ΔV1/2) by 2 µM BmK IT2 with prepulse, two-electrode voltage clamp, Xenopus oocytes (DmM5 (Drosophila)) of -6.56 mV, a shift of the half-maximal activation voltage (ΔV1/2) by 2 µM BmK IT2 with prepulse, two-electrode voltage clamp, Xenopus oocytes (mNav1.6 (mouse) [20]) of 0.32 mV and a shift of the half-maximal activation voltage (ΔV1/2) by 2 µM BmK IT2 with prepulse, two-electrode voltage clamp, Xenopus oocytes (DmG904N (Drosophila) [21]) of 0.66 mV. It also gave a shift of the half-maximal activation voltage (ΔV1/2) by 2 µM BmK IT2 with prepulse, two-electrode voltage clamp, Xenopus oocytes (DmI1529K (Drosophila) [22]) of 0.12 mV, a shift of the half-maximal activation voltage (ΔV1/2) by 2 µM BmK IT2 with prepulse, two-electrode voltage clamp, Xenopus oocytes (DmR1530Y (Drosophila)) of -5.11 mV and a shift of the half-maximal activation voltage (ΔV1/2) by 2 µM BmK IT2 with prepulse, two-electrode voltage clamp, Xenopus oocytes (DmI1534L (Drosophila)) of -7.99 mV. For the same substance, the shift of the half-maximal activation voltage (ΔV1/2) by 2 µM BmK IT2 with prepulse, two-electrode voltage clamp, Xenopus oocytes (DmK1526L (Drosophila)) was -12.3 mV, the shift of the half-maximal activation voltage (ΔV1/2) by 2 µM BmK IT2 with prepulse, two-electrode voltage clamp, Xenopus oocytes (DmD1525E (Drosophila) [23]) was -9.73 mV and the shift of the half-maximal activation voltage (ΔV1/2) by 2 µM BmK IT2 with prepulse, two-electrode voltage clamp, Xenopus oocytes (DmE896C (Drosophila) [24]) was -1.86 mV. The shift of the half-maximal activation voltage (ΔV1/2) by 2 µM BmK IT2 with prepulse, two-electrode voltage clamp, Xenopus oocytes [25] was -5.06 mV and the shift of the half-maximal activation voltage (ΔV1/2) by 2 µM BmK IT2 with prepulse, two-electrode voltage clamp, Xenopus oocytes (DmNav1 (Drosophila) [26]) was -11.9 mV.
